From patent publication US20190099470A1 (UNIVERSITY OF VERMONT AND STATE AGRICULTURAL COLLEGE, published 2019) come the findings set out here.

Sequences and labels used below:
B1: His-tagged human MAVS-C79F expressed in MAVS-deficient MEFs (other, not shown: small tags and cut ends)
chain: MPFAEDKTYKYICRNFSNFCNVDVVEILPYLPCLTARDQDRLRATCTLSGNRDTLWHLFNTLQRRPGWVEYFIAALRGFELVDLADEVASVYQSYQPRTSDRPPDPLEPPSLPAERPGPPTPAAAHSIPYNSCREKEPSYPMPVQETQAPESPGENSEQALQTLSPRAIPRNPDGGPLESSSDLAALSPLTSSGHQEQDTELGSTHTAGATSSLTPSRGPVSPSVSFQPLARSTPRASRLPGPTGSVVSTGTSFSSSSPGLASAGAAEGKQGAESDQAEPIICSSGAEAPANSLPSKVPTTLMPVNTVALKVPANPASVSTVPSKLPTSSKPPGAVPSNALTNPAPSKLPINSTRAGMVPSKVPTSMVLTKVSASTVPTDGSSRNEETPAAPTPAGATGGSSAWLDSSSENRGLGSELSKPGVLASQVDSPFSGCFEDLAISASTSLGMGPCHGPEENEYKSEGTFGIHVAENPSIQLLEGNPGPPADPDGGPRPQADRKFQEREVPCHRPSPGALWLQVAVTGVLVVTLLVVLYRRRLH
notes: Expressed from vector pIRES in MAVS-KO MEFs; also called C79F variant; MAVS-C79F SNP
B3: Homo sapiens mitochondrial antiviral signaling protein (MAVS), endogenous wild-type, as oligomers in human PBMC and in plasma of SLE patients (other)
chain: PFAEDKTYKYICRNFSNFCNVDVVEILPYLPCLTARDQDRLRATCTLSGNRDTLWHLFNTLQRRPGWVEYFIAALRGCELVDLADEVASVYQSYQPRTSDRPPDPLEPPSLPAERPGPPTPAAAHSIPYNSCREKEPSYPMPVQETQAPESPGENSEQALQTLSPRAIPRNPDGGPLESSSDLAALSPLTSSGHQEQDTELGSTHTAGATSSLTPSRGPVSPSVSFQPLARSTPRASRLPGPTGSVVSTGTSFSSSSPGLASAGAAEGKQGAESDQAEPIICSSGAEAPANSLPSKVPTTLMPVNTVALKVPANPASVSTVPSKLPTSSKPPGAVPSNALTNPAPSKLPINSTRAGMVPSKVPTSMVLTKVSASTVPTDGSSRNEETPAAPTPAGATGGSSAWLDSSSENRGLGSELSKPGVLASQVDSPFSGCFEDLAISASTSLGMGPCHGPEENEYKSEGTFGIHVAENPSIQLLEGNPGPPADPDGGPRPQADRKFQEREVPCHRPSPGALWLQVAVTGVLVVTLLVVLYRRRLH
notes: Endogenous protein from donors; In some experiments labelled with Alx488 or Alx546; also called MAVS-WT; SLE MAVS oligomers

Data set [1] concerns the molecule itself. Description: self-oligomerization in reconstituted MAVS-KO MEFs; semi-denaturing TGX gel and immunoblot. In general terms: In western blotting, separated proteins are transferred to a membrane and probed.
For data set [2], the target named is B3. Kind of data set: purified plasma oligomers incubated with purified mitochondria of MAVS-WT MEFs, mitochondria re-purified; immunoblot.
Data set [3] deals with the molecule itself. Kind of data set: self-oligomerization in human PBMC from healthy donors; semi-denaturing agarose gel and immunoblot.
Data set [4] deals with T1, His-tagged human MAVS-WT expressed in MAVS-deficient MEFs (human, UniProt Q7Z434 1-540, limits assumed).
T1 construct: also called His-tagged human WT MAVS; not shown: N-terminal His-tag
Kind of data set: plasma oligomers incubated with mitochondria of MAVS-KO MEFs expressing His-tagged human MAVS-WT; anti-His immunoblot.

For data set [5], the target named is B1. Kind of data set: plasma oligomers incubated with mitochondria of MAVS-KO MEFs expressing His-tagged human MAVS-C79F; anti-His immunoblot.

Consider B1, for which the binding result in data set [1] was “binds”.

B2: Mouse MAVS, endogenous, on mitochondria of wild-type MEFs and BMDCs (other, UniProt Q8VCF0 1-503, looked up)
chain: MTFAEDKTYKYIRDNHSKFCCVDVLEILPYLSCLTASDQDRLRASYRQIGNRDTLWGLFNNLQRRPGWVEVFIRALQICELPGLADQVTRVYQSYLPPGTSLRSLEPLQLPDFPAAVSGPSAFAPGHNIPDHGLRETPSCPKPVQDTQPPESPVENSEQLLQTNSGAVARMSGGSLIPSPNQQALSPQPSREHQEQEPELGGAHAANVASVPIATYGPVSPTVSFQPLPRTALRTNLLSGVTVSALSADTSLSSSSTGSAFAKGAGDQAKAATCFSTTLTNSVTTSSVPSPRLVPVKTMSSKLPLSSKSTAAMTSTVLTNTAPSKLPSNSVYAGTVPSRVPASVAKAPANTIPPERNSKQAKETPEGPATKVTTGGNQTGPNSSIRSLHSGPEMSKPGVLVSQLDEPFSACSVDLAISPSSSLVSEPNHGPEENEYSSFRIQVDESPSADLLGSPEPLATQQPQEEEEHCASSMPWAKWLGATSALLAVFLAVMLYRSRRLAQ
notes: Endogenous full protein on the outer mitochondrial membrane of mouse cells; also called MAVS-WT (MEF); endogenous MAVS
B2: the binding result in data set [2] was “binds”.
B3: the binding result in data set [3], in data set [4] and in data set [5] was “binds” in each case.
